Here are results for one molecule from patent publication CN113372448A.

For this assay, the target named is CIB-OVA (cimbuterol coupled to ovalbumin, detection/coating antigen) (UniProt P01012). In words: indirect ELISA of soluble scFv (periplasmic extract), steps as in Example 2 (CIB-OVA coated); negative control pCANTAB-5E/HB2151.
Chain of UniProt P01012 (P01012 2-386 limits assumed, form in doubt): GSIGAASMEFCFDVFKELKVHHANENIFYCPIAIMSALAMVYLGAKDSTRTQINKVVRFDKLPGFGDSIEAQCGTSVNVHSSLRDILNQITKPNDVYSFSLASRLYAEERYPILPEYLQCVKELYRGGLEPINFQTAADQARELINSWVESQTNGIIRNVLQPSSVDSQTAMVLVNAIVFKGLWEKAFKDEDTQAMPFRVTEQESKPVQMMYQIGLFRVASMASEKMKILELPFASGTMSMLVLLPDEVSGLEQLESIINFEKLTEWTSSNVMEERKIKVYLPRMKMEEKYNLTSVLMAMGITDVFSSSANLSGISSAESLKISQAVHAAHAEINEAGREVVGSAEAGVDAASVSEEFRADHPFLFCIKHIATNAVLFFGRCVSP

B1: 5-CIB-ScFv (soluble anti-CIB single-chain antibody expressed from CIB-ScFv-pCANTAB5E in E. coli HB2151) (scFv, not shown: small tags and cut ends)
scFv: QVQLQESGADLVRPGTSVKVSCKASGYAFTNYLIEWVKQRPGQGLEWIGVINPGSGGTNYNEKFKGKATLTTDKSSSTAYMQLNSLTSEDSAVYFCKRPPMITTRRTGFDYWGQGTTVTVSSGGGGSGGGGSGGGGSDIELTQSPTTMAASPGEKITITCSATSSLSSNYLHWYQQKPGFSPKLLIYRTSNLASGVPTRFSGSGSGTSYSLTIGTMEAEDVATYYCHQYHRSPFTFGSGTKLEIKR
B1 came in with a 效价 (titre, P/N>2.1) (dilution factor (1:x)) of 160.
